Results as given in patent publication US20250099622A1, “COMPOSITIONS AND METHODS FOR EXPRESSING THERAPEUTICS” (priority 2022, published 2025).

Assays:
[1] = tested on: NIH3T3 cells (cGMP secreted); assay: EC50 for CNP-Fc constructs, cGMP ELISA of NIH3T3 supernatant; assay type: cell-based; settings: NIH3T3, 30 minutes, 1.8 mM IBMX, cGMP secreted by the cells; FIG. 25B
Experimental: EC50 for CNP-Fc described herein were measured by ELISA. 2.5E+05 NIH3T3 cells/well were plated. […] After 30 minutes, supernatant was collected for cGMP determined via ELISA. FIG. 25A illustrates a standard curve of cGMP.

Human NPR-B = target: T1, Human NPR-B (Homo sapiens, UniProt P20594); assay: Biacore SPR kinetic affinity binding to immobilized NPR-B
T1 construct: purchased R&D system
T1 sequence (P20594 23-458 limits assumed): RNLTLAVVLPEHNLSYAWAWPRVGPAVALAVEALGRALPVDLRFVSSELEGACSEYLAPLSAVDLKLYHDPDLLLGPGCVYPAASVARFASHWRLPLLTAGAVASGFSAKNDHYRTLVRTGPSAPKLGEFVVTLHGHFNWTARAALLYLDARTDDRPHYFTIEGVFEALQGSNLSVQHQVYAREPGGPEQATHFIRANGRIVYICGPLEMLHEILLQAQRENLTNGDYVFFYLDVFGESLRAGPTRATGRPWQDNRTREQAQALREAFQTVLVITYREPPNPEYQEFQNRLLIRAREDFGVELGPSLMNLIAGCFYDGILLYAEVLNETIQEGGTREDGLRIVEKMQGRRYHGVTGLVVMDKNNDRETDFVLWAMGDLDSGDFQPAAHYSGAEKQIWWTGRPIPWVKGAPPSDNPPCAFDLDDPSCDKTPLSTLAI
Experimental: The biological function of these purified protein was assayed for their stimulation of production of cGMP, using NPR-B receptor positive cell line, NIH/3T3 and NPR-B negative cell line HEK293 cells. The determination of cGMP was assay by ELISA using commercial CNP as standard curves. […] Surface preparation. NBR-B was immobilized at different levels in three flow cells via standard amine coupling, leaving Fc 1 unmodified to serve as a reference. All surface plasmon resonance (SPR) analysis was performed on a BIAcore 3000 system using series CM5 sensor chips. Data processing and analysis were performed using BIAevaluation software. All sensorgrams were double referenced by subtracting the response on a reference flow cell and a blank sample. Human NPR-B (R&D system) was covalently attached to a CM5 chip via amine coupling. A surface density of 6600 RU was used for measurements with natriuretic peptides Sequential injections of CNP (0.5-8 nM) were performed at a flow rate of […] (300 s for each), followed by a dissociation time of 900 s. […] Kinetic parameters were calculated assuming a simple 1:1 (Langmuir) binding. […] All SPR analysis was performed on a BIAcore 3000 system using series CM5 sensor chips. Data processing and analysis were performed using BIAevaluation software. All sensorgrams were double referenced by subtracting the response on a reference flow cell and a blank sample. Human NPR-B (R&D system) was covalently attached to a CM5 chip via amine coupling. A surface density of 3100 RU was used for measurements with natriuretic peptides Sequential injections of AMI263 (FC4-CNP) (0.125-2 nM) were performed at a flow rate of […] (300 s for each), followed by a dissociation time of 900 s. […] Kinetic parameters were calculated assuming a simple 1:1 (Langmuir) binding. […] All SPR analysis was performed on a BIAcore 3000 system using series CM5 sensor chips. Data processing and analysis were performed using BIAevaluation software. All sensorgrams were double referenced by subtracting the response on a reference flow cell and a blank sample. Human NPR-B (R&D system) was covalently attached to a CM5 chip via amine coupling. […] Kinetic parameters were calculated assuming a simple 1:1 (Langmuir) binding. […] All SPR analysis was performed on a BIAcore 3000 system using series CM5 sensor chips. Data processing and analysis were performed using BIAevaluation software. All sensorgrams were double referenced by subtracting the response on a reference flow cell and a blank sample. Human NPR-B (R&D system) was covalently attached to a CM5 chip via amine coupling. A surface density of 3100 RU was used for measurements with natriuretic peptides Sequential injections of AMI263 (FC4-CNP) (0.5-300 nM) were performed at a flow rate of […] (300 s for each), followed by a dissociation time of 900 s. […] Kinetic parameters were calculated assuming a simple 1:1 (Langmuir) binding. […] All SPR analysis was performed on a BIAcore 3000 system using series CM5 sensor chips. Data processing and analysis were performed using BIAevaluation software. All sensorgrams were double referenced by subtracting the response on a reference flow cell and a blank sample. Human NPR-B (R&D system) was covalently attached to a CM5 chip via amine coupling.

HEK293 cells = assay: CNP-Fc ELISA of supernatant of AAV-transduced HEK293 cells; assay type: cell-based, Human; settings: CNP-Fc in HEK293 supernatant 5 days after transduction with 100,000 MOI of AAV2 N54 vector
Experimental: C-type natriuretic peptide (CNP) has two isoforms, CNP-22 and CNP-53. Example 2 illustrates that CNP-36 fused with Fe increased the half-life of the CNP and also facilitated in purification and ELISA detection when compared to native (unfused) CNP. Transduction and CNP-Fc expression experiments were performed with three AAV vectors (AMI061, AMI087 and AMI0488). FIG. 1A is the pictorial depiction of the three vectors. FIGS. 1B-F illustrate additional vectors that can encode the CNP or the CNP fusion protein. Enzyme-linked immunoassay (ELISA) was developed for quantifying CNP-Fc fusion proteins in cell culture supernatants. The ELISA assay was used to quantify CNP-Fc expressed in HEK293 cells, human chondrocytes (HCH) cells, and human skeletal muscle cells (hSkMC) upon transduction with one of the three AAV constructs described herein.
Buffer and substrate. Coating buffer: 3.7 g sodium bicarbonate, 0.64 g sodium carbonate in 1 L of Milli Q water, pH 9.6. Stored at RT; Blocking buffer: Commercial Casein blocking buffer in PBS+ added 0.1% Tween20. Stored at 4° C.; Standard diluent: same as blocking buffer; Wash buffer: 1×PBS with 0.1% tween 20 (30 days expiry from date of manufacture); Coating Antibody (Ab): Human CNP Antibody (monoclonal), coating concentration was 2 μg/mL; Detection Ab: Goat pAb anti-human Fc. Diluted up to 1:20,000 final dilution in well. Stored at 4° C.; HRP: Streptavidin-HRP stock of 1 mg/mL, diluted up to 1:10,000. Stored at 4° C.; Substrate: TMB. Stored at 4° C.; and Stop solution: 2 N HCl. Stored at ambient temperature.
• 1. Coat 96-well plate with 2 μg/mL anti-CNP antibody final concentration per well in the coating buffer with a 50 μL volume and cover the plate with sealing cover. Put the plate at 4° C. overnight. • 2. Next day, remove the plate, wash thrice with wash buffer and tap the plate on the paper towel to remove excess solution. • 3. Add 300 μL of blocking buffer to each well using multichannel pipette. […] Add 50 μL stop solution and read plate at 450 nm with 600 as reference within 15 min. […]

[2] = target: T2, NPR-B on NIH/3T3 cells (NPR-B receptor positive cell line) (UniProt Q6VVW5 17-1047, limits assumed); assay: cell-based or functional assay
T2 sequence (looked up): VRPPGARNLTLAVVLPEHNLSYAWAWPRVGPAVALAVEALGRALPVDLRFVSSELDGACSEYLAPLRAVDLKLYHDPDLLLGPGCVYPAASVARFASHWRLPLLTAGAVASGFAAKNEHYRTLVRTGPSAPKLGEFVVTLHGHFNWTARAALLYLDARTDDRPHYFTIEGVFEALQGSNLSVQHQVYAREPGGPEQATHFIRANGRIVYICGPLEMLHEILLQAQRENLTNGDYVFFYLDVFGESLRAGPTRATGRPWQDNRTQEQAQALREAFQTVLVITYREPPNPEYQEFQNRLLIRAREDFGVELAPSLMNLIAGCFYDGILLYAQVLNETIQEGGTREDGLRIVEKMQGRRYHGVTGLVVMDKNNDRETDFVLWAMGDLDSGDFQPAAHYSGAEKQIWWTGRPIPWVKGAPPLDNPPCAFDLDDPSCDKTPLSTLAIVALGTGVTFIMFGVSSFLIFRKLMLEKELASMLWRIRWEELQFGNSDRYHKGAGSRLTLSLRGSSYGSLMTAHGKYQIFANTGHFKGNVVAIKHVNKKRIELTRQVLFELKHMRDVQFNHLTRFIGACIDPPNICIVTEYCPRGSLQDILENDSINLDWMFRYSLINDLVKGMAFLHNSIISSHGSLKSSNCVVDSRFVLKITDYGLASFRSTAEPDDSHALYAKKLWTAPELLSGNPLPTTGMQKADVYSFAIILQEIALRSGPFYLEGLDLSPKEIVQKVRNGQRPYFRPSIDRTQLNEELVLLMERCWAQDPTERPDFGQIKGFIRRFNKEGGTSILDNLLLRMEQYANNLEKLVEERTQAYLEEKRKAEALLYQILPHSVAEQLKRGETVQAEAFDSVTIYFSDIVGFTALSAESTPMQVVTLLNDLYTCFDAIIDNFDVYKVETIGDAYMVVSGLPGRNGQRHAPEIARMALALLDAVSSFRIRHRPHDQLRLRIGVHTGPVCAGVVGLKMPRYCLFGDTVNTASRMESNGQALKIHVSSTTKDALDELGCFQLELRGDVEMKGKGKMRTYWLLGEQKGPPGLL

“AMI269: fusion protein Fc4-(G4S)4-CNP22, SEQ ID NO: 136” was tested, and the “EC50 values (rank order)” value [1] was “CNP-22 ≡Fc4-CNP36>Aflibercept-Fc4-CNP36>Fc1-CNP36>>Fc4-CNP22”.

Molecule “AMI087: purified CNP-Fc fusion protein CNP36-(G4S)4-Fc1, SEQ ID NO: 132” has a ka (Human NPR-B; (FIG. 7C-7I)) of 3.65E3, a kd (Human NPR-B; (FIG. 7C-7I)) of 1.53E-3 and a ka (Human NPR-B; Table 32 summary of affinity) of 3.65E+03. The kd (Human NPR-B; Table 32 summary of affinity) was 1.53E−03 and the “Concentration” value (HEK293 cells) was 33 µg/mL.

For SLRRSSCFGGRMDRIGAQSGLGCNSFRY (peptide, UniProt P01160 124-151, looked up) [ANP], the “EC50 (cGMP production, drawn table, row ANP)” value [2] was 0.112 µM and the “EC50 (read off the curve), cGMP production” value [2] was about 0.1 µM.
